In patent US20230348603A1:

B1: 12A12 mouse Fab (periplasmic extract) (Fab, V domains shown)
VH: QVQMKQSGAELAKPGASVKMSCKASGYTFTNYWMHWVKQRPGQGLEWIGYINPSTGYTDYNQNFKDRATLTADKSSSTAYMQLSSLTSEDSAVYYCIRGSDYYGRDYWGQGTTLTVSS
VL: DIQMTQTTSSLSASLGDRVTISCRASQDISNYLNWYQQKPDGTLKLLIYYTSRLHSGVPSRFSGSGSGTDYSLTISNLEQEDIATYFCRQGNTLPWTFGGGTKLEIK
B2: 15C03 mouse Fab (periplasmic extract) (Fab, V domains shown)
VH: EVKLLESGPGLVKPSQSLSLTCTVTGYSITSDYAWNWIRQFPGNKLEWMGYISYSGSTRYNPSLKSRISITRDTSNNQFFLQLNSVTTEDTATYYCARSGYAAMDYWGQGTSVTVSS
VL: ENVLTQSPAIMSASPGEKVTMTCRASSSVSSSYLHWYQQKSGASPKLWIYSTSNLASGVPARFSGSGSGTSYSLTISSVEAEDAATYYCQQYSGYPLTFGSGTKLEIK
B3: 16E10 mouse Fab (periplasmic extract) (Fab, V domains shown)
VH: QVQLQQSGAELVRPGTSVKISCKASGYTFTNYWLGWVKQRPGHGLEWIGDIYPGGGYTNYNEKFKGKATLTADTSSSTAYMQLSSLTSEDSAVYFCAKFYYYGSSYYFDSWGQGTTLTVSS
VL: DIVLTQSPSSLSVSAGEKVTLSCKSSQSLLNSGNQENYLAWYQQKPGQPPKLLIYGASTRESGVPDRFTGSGSGTDFTLTISSVQAEDLAVYYCQNDHSYPLTFGAGTKLELK
B4: 16E03 mouse Fab (periplasmic extract) (Fab, V domains shown)
VH: QVQLQQSGAELARPGASVKMSCKASGYTFTSYTMHWIKQRPGQGLEWIGYINPSSGHTYYNQKFKDKATLTPDKSSSTAYMQLTSLTSEDSAVYYCARRIPTAYAMDYWGQGTSVTVSS
VL: EIQMTQSHKFMSTSVGDRVSITCKASQDVGTAVAWYQQKPGQSPKLLIYWASTRHTGVPDRFTGSGSGTDFTLTISNVQSEDLADYFCQQYSSYPLTFGAGTKLELK
B5: 12A08 mouse Fab (periplasmic extract) (Fab, V domains shown)
VH: EVMLVESGGGLVKPGGSLKLSCAASGFTFDDFYMYWVRQTPEKRLEWVASISDGGTYTYYPDSVKGRFTISRDNAKNTLYLQLSSLKSEDTAMYYCARGVDKYYYAMDYWGQGTSVTVSS
VL: QILLTQSPAIMSASPGEKVTITCSASSSVSYMHWFQQKPGTSPKLWIYSTSNLASGVPARFSGSGSGTSYSLTISRMEAEDAATYYCQQRSSYPLTFGAGTKLELK
B6: 13H11 mouse Fab (periplasmic extract) (Fab, V domains shown)
VH: QIQLVQSGPELKKPGETVKISCKASGYTFENFGMNWVKQAPGKGLKWMGWINTYTGEATYADDFKGRFAFSLETSASTAYLQINNLKNEDTATYFCARDGGFRHFDVWGAGTTVTVSS
VL: ETTVTQSPASLSVATGEKVTIRCITSTDIDDDMNWYQQKPGEPPKLLISEGNTLRPGVPSRFSSSGYGTDFVFTIENMLSEDVADYYCLQSDNLPLTFGAGTKLELK
B7: 14D12 mouse Fab (periplasmic extract) (Fab, V domains shown)
VH: QIQLVQSGPELKKPGETVKISCKASGYTFTNYGMNWVKQTPGKGLKWMGLINTYTGEPTYADDFKGRFAFSLETSASTAYLQINNLKNEDMATYFCARERIYGYLHYFDYWGQGTTLTVSS
VL: DVVMTQTPASLAVSLGQRATISCKASQSVDYDGDSYMNWYQQKPGQPPKLLIYAASNLESGIPARFSGSGSGTDFTLNIHPVEEEDAATYYCQQSNEDPRTFGGGTKLEIK
B8: 14C05 mouse Fab (periplasmic extract) (Fab, V domains shown)
VH: EVMLVESGPELKKPGETVKISCKASGYTFTNYGMNWVKQAPGKGLKWMGSINTYTGEATYADDFKGRFAFSLETSANTAYLQIDNLKNEDTATYFCARGDYYGRGTWFAYWGQGTLVTVSA
VL: ETTVTQSHKFMSTSVGDRVSITCKASQDVSTAVAWYQQKPGQSPKLLIYSASYRYPGVPDRFTGSGSGTDFTFTISSVQAEDLAVYYCQQDYSSPWTFGGGTKLEIK

The binders below were run against Mouse VSIG4-His (mouse) (assay: ELISA, Fab P.E. 1:5 on coated antigen).
Mouse VSIG4-His (mouse), sequence (chain, as listed by the source limits assumed): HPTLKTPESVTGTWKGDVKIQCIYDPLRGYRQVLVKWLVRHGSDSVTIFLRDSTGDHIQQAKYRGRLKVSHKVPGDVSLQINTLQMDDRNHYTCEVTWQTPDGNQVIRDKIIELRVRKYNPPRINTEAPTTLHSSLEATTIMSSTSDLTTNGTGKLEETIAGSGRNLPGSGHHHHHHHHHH
B1 was tested, and the ELISA OD450 was 0.063 OD450. B2 gave an ELISA OD450 of 0.065 OD450. In the case of B3, the ELISA OD450 is reported as 0.058 OD450. With B4 the ELISA OD450 was 0.057 OD450. In the case of B5, the ELISA OD450 is reported as 0.057 OD450. For B6, the ELISA OD450 was 0.057 OD450. Binder B7 has an ELISA OD450 of 0.054 OD450. B8 gave an ELISA OD450 of 0.059 OD450.
